Key:
[1] = tested on: N[C@@H](Cc1c[nH]c2ccccc12)C(=O)O; assay: purified protein; conditions: 100 mM KPi pH 7.8, 30 °C, 0.05 mM pyridoxal phosphate, 1 mM DTT
[2] = tested on: T1, N[C@@H](Cc1c[nH]c2ccccc12)C(=O)O; assay: purified protein; format: biochemical, Proteus vulgaris; conditions: 100 mM KPi pH 7.8, 30 °C, 0.05 mM pyridoxal phosphate, 1 mM DTT
T1 construct: full length, N-terminal 6xHis tag, codon-optimised gene, pACYCDuet-1, E. coli BL21(DE3), Ni-NTA; TNAs are homotetramers

Substance EcTNA (Escherichia coli K-12) has a Km [1] of 140 ± 10 µM, a kcat [1] of 1.65 s⁻¹ and a kcat/Km [1] of 11800 M⁻¹ s⁻¹.
PvTNA (Proteus vulgaris) was tested, and the Km [2] was 30 ± 3 µM, the kcat [2] was 0.78 ± 0.02 s⁻¹ and the kcat/Km [2] was 26000 ± 5800 M⁻¹ s⁻¹.

Reference: publication PMC8944080, “Production of indole by Corynebacterium glutamicum microbial cell factories for flavor and fragrance applications” (Microbial Cell Factories, 2022)
